# Reference: patent US6124449, “High affinity TGFβ nucleic acid ligands and inhibitors” (NeXstar Pharmaceuticals, Inc.)
# Where a chain is given by its changes, count along the chain named.
# B1: 40-39 (ssRNA)
# RNA: GGGAGGACGAUGCGGUGCCUUUAGCCUAAGUUGAUCUAUUCAGCUUUCUGCCGCAGACGACUCGCCCGA
# modifications: 2'-F C and U
# B2: 40-24 (ssRNA)
# RNA: GGGAGGACGAUGCGGUUAUGGGCGUCAACACCGCUAUUACAACUUUCGCUUUCCCAGACGACUCGCCCGA
# modifications: 2'-F C and U
# B3: 40-26 (ssRNA)
# RNA: B2 RNA with U19G, C31U, C43U, U44C, U50C
# modifications: 2'-F C and U
# B4: 40-28 (ssRNA)
# RNA: B2 RNA with U19G, U50C, U52C, C53A
# modifications: 2'-F C and U
# B5: 30-16,27,38,46 (ssRNA)
# RNA: GGGAGGACGAUGCGGUGCCUUUAGCUUAGGCAUUGCCUUCUGCCGCAGACGACUCGCCCGA
# modifications: 2'-F C and U
# B6: 30-39 (ssRNA)
# RNA: B5 RNA with C18U, C31U, A32G, U33A, G35U
# modifications: 2'-F C and U
# B7: 30-35 (ssRNA)
# RNA: B5 RNA with C18U, U26C, C31U, A32G, U33A, G35U, G45U
# modifications: 2'-F C and U
# B8: 30-17 (ssRNA)
# RNA: B5 RNA with A32U
# modifications: 2'-F C and U
# B9: 40-04 (ssRNA)
# RNA: GGGAGGACGAUGCGGAUGCCUUUUGCCUUCAGGGUGUAAUUCCUUGAUCUGUCCGCAGACGACUCGCCCGA
# modifications: 2'-F C and U
# B10: 40-41 (ssRNA)
# RNA: GGGAGGACGAUGCGGUGCCUUUAGCCUGAGUAUACUGAUGUAUAUUCUCUGCCGCAGACGACUCGCCCGA
# modifications: 2'-F C and U
# B11: 40-11 (ssRNA)
# RNA: GGGAGGACGAUGCGGUGCCUUUAGUCUGAAUCUUCUACCAUGAUUCUCUGCCGCAGACGACUCGCCCGA
# modifications: 2'-F C and U
# B12: 30-25 (ssRNA)
# RNA: GGGAGGACGAUGCGGUUGGCAUUGAAAGAGGCGUCAUAUGUUCGCCAGACGACUCGCCCGA
# modifications: 2'-F C and U
# B13: 40-03 (ssRNA)
# RNA: GGGAGGACGAUGCGGGGGUUAUUGGGCGUCAACAUCCCCGAUUCUUUUCACGUCCAGACGACUCGCCCGA
# modifications: 2'-F C and U
# B14: 40-22,35 (ssRNA)
# RNA: GGGAGGACGAUGCGGUUAGGGGCGUCAACACCGCUAUUACAAUUUUCGCUUCCCAGACGACUCGCCCGA
# modifications: 2'-F C and U
# B15: 40-23 (ssRNA)
# RNA: B14 RNA with U44C
# modifications: 2'-F C and U
# Tests used:
# TGF-beta1 (hTGF-beta1) [1] = target: T1, TGF-beta1 (hTGF-beta1) (Homo sapiens, UniProt P01137 P01137:279-390); test: filter; biphasic; Kd1 11.5±2.0 nM; conditions: tags: R&D Systems; biotinylated form (NFTG0) used for BIAcore; chain copies: 2
# TGF-beta1 (hTGF-beta1) [2] = target: T1, TGF-beta1 (hTGF-beta1); test: filter; biphasic; Kd1 12.7±4.7 nM; conditions: tags: R&D Systems; biotinylated form (NFTG0) used for BIAcore; chain copies: 2
# TGF-beta1 (hTGF-beta1) [3] = target: T1, TGF-beta1 (hTGF-beta1); test: filter; biphasic; Kd1 7.7±1.6 nM; conditions: tags: R&D Systems; biotinylated form (NFTG0) used for BIAcore; chain copies: 2
# TGF-beta1 (hTGF-beta1) [4] = target: T1, TGF-beta1 (hTGF-beta1); test: filter; biphasic; Kd1 12.3±2.4 nM; conditions: tags: R&D Systems; biotinylated form (NFTG0) used for BIAcore; chain copies: 2
# TGF-beta1 (hTGF-beta1) [5] = target: T1, TGF-beta1 (hTGF-beta1); test: filter; biphasic; Kd1 71.8 nM; P2 4.3%; conditions: tags: R&D Systems; biotinylated form (NFTG0) used for BIAcore; chain copies: 2
# TGF-beta1 (hTGF-beta1) [6] = target: T1, TGF-beta1 (hTGF-beta1); test: filter; biphasic; Kd1 6.02±1.5 nM; conditions: tags: R&D Systems; biotinylated form (NFTG0) used for BIAcore; chain copies: 2
# TGF-beta1 (hTGF-beta1) [7] = target: T1, TGF-beta1 (hTGF-beta1); test: filter; biphasic; Kd1 20.7±13.8 nM; conditions: tags: R&D Systems; biotinylated form (NFTG0) used for BIAcore; chain copies: 2
# TGF-beta1 (hTGF-beta1) [8] = target: T1, TGF-beta1 (hTGF-beta1); test: filter; biphasic; Kd1 67 nM; P2 4.3%; conditions: tags: R&D Systems; biotinylated form (NFTG0) used for BIAcore; chain copies: 2
# TGF-beta1 (hTGF-beta1) [9] = target: T1, TGF-beta1 (hTGF-beta1); test: filter; biphasic; Kd1 5.0±0.6 nM; conditions: tags: R&D Systems; biotinylated form (NFTG0) used for BIAcore; chain copies: 2
# TGF-beta1 (hTGF-beta1) [10] = target: T1, TGF-beta1 (hTGF-beta1); test: filter; biphasic; Kd1 3.8±0.9 nM; conditions: tags: R&D Systems; biotinylated form (NFTG0) used for BIAcore; chain copies: 2
# TGF-beta1 (hTGF-beta1) [11] = target: T1, TGF-beta1 (hTGF-beta1); test: filter; biphasic; Kd1 4.6±0.7 nM; conditions: tags: R&D Systems; biotinylated form (NFTG0) used for BIAcore; chain copies: 2
# TGF-beta1 (hTGF-beta1) [12] = target: T1, TGF-beta1 (hTGF-beta1); test: filter; biphasic; Kd1 23±6.4 nM; labelled 30-35 in Table 4 class 7 but sequence is 30-25; conditions: tags: R&D Systems; biotinylated form (NFTG0) used for BIAcore; chain copies: 2
# TGF-beta1 (hTGF-beta1) [13] = target: T1, TGF-beta1 (hTGF-beta1); test: cell_activity; MLEC growth suppression reversal; conditions: tags: R&D Systems; biotinylated form (NFTG0) used for BIAcore; chain copies: 2; label: 5'-biotin for BIAcore specificity; proposed double pseudoknot
# Experimental: Cells were plated at 10^5/mL in 96-well plates in MEM, 10 mM HEPES and 0.2% FBS. Following 4 hours of incubation at 37° C., when cells appeared to attach to the well surface, TGFβ1 was added at 2 pM with or without TGFβ1 ligands that ranged from 0.1 nM to 1 µM. In a second assay performed in order to determine cross-species reactivity, rather than using hTGFβ, a conditioned serum-free medium (CM) was used. CM was conditioned by culturing it in murine 3T3 fibroblast for 48 hours. Before use, this conditioned medium was heat treated at 80° C. for 10 minutes to activate the 3T3 cell derived TGFβ and then it was diluted to 50% and supplemented with 0.2% murine serum. In each assay, hTGFβ1 (or CM) was diluted appropriately in MEM and FBS (0.2% or murine serum) and the ligands were diluted in MEM. TGFβ1 (or CM) and ligand dilutions at 10× the final concentration were premixed at equal volumes and then were added to the cells. […] After incubation, the cells were washed and harvested with SKATRON filtering units and ^3H-thymidine incorporation in cellular DNA was quantitated by scintillation counting in Ecoscint. Data were plotted and analyzed as described in Park et al. (1990) J. Exp. Med. 171:1073) and Dower et al. (1984) J. Immunol.
# TGF-beta1 (hTGF-beta1) [14] = target: T1, TGF-beta1 (hTGF-beta1); test: filter; biphasic; Kd1 13.9±4.3 nM; conditions: tags: R&D Systems; biotinylated form (NFTG0) used for BIAcore; chain copies: 2
# TGF-beta1 (hTGF-beta1) [15] = target: T1, TGF-beta1 (hTGF-beta1); test: cell_activity; MLEC assay; conditions: tags: R&D Systems; biotinylated form (NFTG0) used for BIAcore; chain copies: 2
# Experimental: Cells were plated at 10^5/mL in 96-well plates in MEM, 10 mM HEPES and 0.2% FBS. Following 4 hours of incubation at 37° C., when cells appeared to attach to the well surface, TGFβ1 was added at 2 pM with or without TGFβ1 ligands that ranged from 0.1 nM to 1 µM. In a second assay performed in order to determine cross-species reactivity, rather than using hTGFβ, a conditioned serum-free medium (CM) was used. CM was conditioned by culturing it in murine 3T3 fibroblast for 48 hours. Before use, this conditioned medium was heat treated at 80° C. for 10 minutes to activate the 3T3 cell derived TGFβ and then it was diluted to 50% and supplemented with 0.2% murine serum. In each assay, hTGFβ1 (or CM) was diluted appropriately in MEM and FBS (0.2% or murine serum) and the ligands were diluted in MEM. TGFβ1 (or CM) and ligand dilutions at 10× the final concentration were premixed at equal volumes and then were added to the cells. Following addition of the TGFβ1 (or CM)-ligand mixture, the cells were incubated for 16–18 hours prior to addition of ^3H-thymidine at 0.25 µCi per well and continued incubation for 7–8 additional hours. After incubation, the cells were washed and harvested with SKATRON filtering units and ^3H-thymidine incorporation in cellular DNA was quantitated by scintillation counting in Ecoscint. Data were plotted and analyzed as described in Park et al. (1990) J. Exp. Med. 171:1073) and Dower et al. (1984) J. Immunol.
# TGF-beta1 (hTGF-beta1) [16] = target: T1, TGF-beta1 (hTGF-beta1); test: filter; biphasic; Kd1 14.2±4.5 nM; conditions: tags: R&D Systems; biotinylated form (NFTG0) used for BIAcore; chain copies: 2
# T1 sequence (P01137 279-390, one chain of several): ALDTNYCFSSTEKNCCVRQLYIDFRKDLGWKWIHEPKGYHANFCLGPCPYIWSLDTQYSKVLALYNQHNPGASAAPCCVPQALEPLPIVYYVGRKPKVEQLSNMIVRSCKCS
binder,measurement,setting,value
B1,Kd,TGF-beta1 (hTGF-beta1) [1],8.78 pM
B2,Kd,TGF-beta1 (hTGF-beta1) [2],27.5 pM
B3,Kd,TGF-beta1 (hTGF-beta1) [3],40.8 pM
B4,Kd,TGF-beta1 (hTGF-beta1) [4],81.6 pM
B5,Kd,TGF-beta1 (hTGF-beta1) [5],211 pM
B6,Kd,TGF-beta1 (hTGF-beta1) [6],32.5 pM
B7,Kd,TGF-beta1 (hTGF-beta1) [7],224 pM
B8,Kd,TGF-beta1 (hTGF-beta1) [8],205 pM
B9,Kd,TGF-beta1 (hTGF-beta1) [9],1.4 pM
B10,Kd,TGF-beta1 (hTGF-beta1) [10],1.4 pM
B11,Kd,TGF-beta1 (hTGF-beta1) [11],4.9 pM
B12,Kd,TGF-beta1 (hTGF-beta1) [12],1.14 pM
B13,Ki,TGF-beta1 (hTGF-beta1) [13],400 pM
B14,Kd,TGF-beta1 (hTGF-beta1) [14],17.6 pM
B15,Ki,TGF-beta1 (hTGF-beta1) [15],750 pM
same,Kd,TGF-beta1 (hTGF-beta1) [16],15.6 pM
